Here are results for two molecules from PMC6134095, “Structural Analysis of the Interaction between the Bacterial Cell Division Proteins FtsQ and FtsB” (mBio, 2018).

Data set [1] deals with the molecule itself. Description: crystal structure; FtsQ (58–276) with FtsB (22–103), co-purified complex at 6 mg/ml; P4(1)2(1)2, 2.6 Å, molecular replacement; 0.15 M potassium thiocyanate, 20% PEG 550 MME, 0.1 M sodium cacodylate pH 6.5, 19°C.
Data set [2] addresses T1, FtsQ (58–276), periplasmic domain of E. coli FtsQ (Escherichia coli strain K-12, UniProt P06136 58-276).
T1 construct: FtsQ, Escherichia coli K-12, periplasmic domain (alpha and beta domains), residues 58-276; construct printed as M-58-276-GSH6; No tag cleavage is described; also called FtsQ (residues 58 to 276); Q: M-58-276-GSH6; source: E. coli C41(DE3), purified (HisTrap, Sephacryl S300); not shown: His6, C-terminal, kept
Description: SPR; FtsQ (58–276) immobilised on a CM5 chip by amide coupling (~1,000 RU); Biacore T200, 20°C; 10 mM HEPES pH 7.4, 150 mM NaCl, 0.4% glycerol; analytes injected 120 s, 600 s dissociation, 1:2 dilution series, triplicate. As to conditions: both partners purified. (In SPR one partner is held on a chip, and binding of the other changes the refractive index at the surface.)

Data set [3] has as its target T2, FtsQ (58–276) and FtsB (22–103) added together (Escherichia coli strain K-12 | E. coli, UniProt P06136 58-276; P0A6S5 22-103).
T2 construct: FtsQ, Escherichia coli K-12, periplasmic domain, residues 58-276; as m1; as m2; The two proteins were injected in combination (40 µM each at the start of the dilution series) over immobilised FtsL; also called FtsB and FtsQ; FtsQB complex; source: E. coli C41(DE3), each purified separately (HisTrap, Sephacryl S300), injected in combination
Description: SPR; FtsL (58–121) immobilised on a CM5 chip by amide coupling (~3,300 RU); Biacore T200, 20°C; 10 mM HEPES pH 7.4, 150 mM NaCl, 0.4% glycerol; FtsQ (58–276) and FtsB (22–103) from 40 µM each, alone or in combination. As to conditions: both partners purified.

T1 sequence (P06136 58-276): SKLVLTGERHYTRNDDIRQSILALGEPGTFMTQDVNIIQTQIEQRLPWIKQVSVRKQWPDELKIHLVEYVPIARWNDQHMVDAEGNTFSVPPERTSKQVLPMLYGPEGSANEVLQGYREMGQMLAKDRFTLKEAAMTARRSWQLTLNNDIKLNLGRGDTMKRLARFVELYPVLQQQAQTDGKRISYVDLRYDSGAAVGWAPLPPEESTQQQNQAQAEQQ
T2 sequence (P06136 58-276, chain 1 of 2, one chain of several): as the sequence (P06136 58-276) above

B1: FtsB (22–103), periplasmic domain of E. coli FtsB (domain or fragment, UniProt P0A6S5 22-103, looked up)
chain: GKNGIHDYTRVNDDVAAQQATNAKLKARNDQLFAEIDDLNGGQEALEERARNELSMTRPGETFYRLVPDASKRAQSAGQNNR
notes: No tag cleavage is described; source: E. coli C41(DE3), purified (HisTrap, Sephacryl S300); not shown: His6, N-terminal, kept
Turning to B1, the binding result in data set [1] was “binds”. Moreover, in data set [2], binding was put at a Kd of 0.8 µM.

B2: FtsL (58–121), periplasmic domain of E. coli FtsL (domain or fragment, UniProt P0AEN4 58-121, looked up)
chain: HHTRLLTAQREQLVLERDALDIEWRNLILEENALGDHSRVERIATEKLQMQHVDPSQENIVVQK
notes: FtsL, E. coli, periplasmic domain, residues 58-121; Cloned into pET15b like FtsB; source: E. coli C41(DE3), purified (HisTrap, Sephacryl S300)
B2: in data set [3], the Kd (commonly the constant that tells how readily two partners part at equilibrium) worked out at 11 µM.
